This note sets out measurements from patent publication US20150071856A1 (UNIVERSITEIT MAASTRICHT, published 2015).

Assay [1] concerns the target T1, rFzd-1 (frizzled-1 receptor) (rat, UniProt Q08463 69-641). The assay is described as follows: cell-based or functional assay.
In assay [2] the target is T2, rFzd-2 (frizzled-2 receptor) (rat, UniProt Q08464 29-570). Nature of the assay: cell-based or functional assay.
For assay [3], the target named is T1, rFzd-1 (frizzled-1 receptor). The assay is described as follows: cell-based or functional assay. This is another data set of the same source.
Assay [4] has as its target T2, rFzd-2 (frizzled-2 receptor). The assay is described as follows: cell-based or functional assay. This is another data set of the same source.
Assay [5] deals with T3, mouse Fzd-1 (mouse, UniProt O70421 69-642).
T3 construct: whole, on cells; also called frizzled-1 (mouse)
Nature of the assay: competition: UM207 (1.10^-7 M) pre-incubated on mouse tissue sections, competitor UM206-rhodamine. Here is the method:
(§1) Specificity of the binding site was confirmed by prior incubation of the tissue sections with UM207 (1.10⁻⁷ M) or recombinant Wnt3a (1.10⁻⁸ M). Both compounds completely abolished the binding of UM206-rhodamine to its receptors.

The target of assay [6] is T4, mouse Fzd-2 (mouse, UniProt Q9JIP6 29-570).
T4 construct: whole, on cells; also called frizzled-2 (mouse)
The assay is described as above. As to the method: as §1

No end group written: not given here. alkyl = not defined here

T1 sequence (Q08463 69-641): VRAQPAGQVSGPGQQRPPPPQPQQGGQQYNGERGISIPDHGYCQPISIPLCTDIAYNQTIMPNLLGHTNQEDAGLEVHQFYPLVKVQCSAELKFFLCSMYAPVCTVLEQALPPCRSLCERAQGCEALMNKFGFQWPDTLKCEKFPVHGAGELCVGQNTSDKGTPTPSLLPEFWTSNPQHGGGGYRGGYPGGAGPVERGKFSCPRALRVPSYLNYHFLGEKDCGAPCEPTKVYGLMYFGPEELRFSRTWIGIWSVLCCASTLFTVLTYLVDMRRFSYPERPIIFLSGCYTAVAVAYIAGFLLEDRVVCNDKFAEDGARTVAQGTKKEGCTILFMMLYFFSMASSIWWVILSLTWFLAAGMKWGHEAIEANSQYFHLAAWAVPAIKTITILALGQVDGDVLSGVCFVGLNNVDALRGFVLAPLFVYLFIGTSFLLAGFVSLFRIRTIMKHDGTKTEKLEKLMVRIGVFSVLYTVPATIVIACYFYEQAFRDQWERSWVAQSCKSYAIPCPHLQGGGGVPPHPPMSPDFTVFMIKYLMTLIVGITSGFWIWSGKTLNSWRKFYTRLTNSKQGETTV
T2 sequence (Q08464 29-570): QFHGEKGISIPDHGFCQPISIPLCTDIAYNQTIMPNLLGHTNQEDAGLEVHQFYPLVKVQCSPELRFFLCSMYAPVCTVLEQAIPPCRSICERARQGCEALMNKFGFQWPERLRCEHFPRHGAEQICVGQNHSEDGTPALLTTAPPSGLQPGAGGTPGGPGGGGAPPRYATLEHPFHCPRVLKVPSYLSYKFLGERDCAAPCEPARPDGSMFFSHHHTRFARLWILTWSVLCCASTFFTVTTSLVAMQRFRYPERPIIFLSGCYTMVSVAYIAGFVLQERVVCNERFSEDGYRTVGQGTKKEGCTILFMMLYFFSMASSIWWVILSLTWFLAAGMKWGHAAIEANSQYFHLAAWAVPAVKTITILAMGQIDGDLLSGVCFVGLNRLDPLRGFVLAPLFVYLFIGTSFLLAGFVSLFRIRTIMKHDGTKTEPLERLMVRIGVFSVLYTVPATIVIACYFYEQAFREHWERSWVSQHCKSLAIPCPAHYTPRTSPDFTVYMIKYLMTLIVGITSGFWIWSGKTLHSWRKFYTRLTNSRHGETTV
T4 sequence (Q9JIP6 29-570): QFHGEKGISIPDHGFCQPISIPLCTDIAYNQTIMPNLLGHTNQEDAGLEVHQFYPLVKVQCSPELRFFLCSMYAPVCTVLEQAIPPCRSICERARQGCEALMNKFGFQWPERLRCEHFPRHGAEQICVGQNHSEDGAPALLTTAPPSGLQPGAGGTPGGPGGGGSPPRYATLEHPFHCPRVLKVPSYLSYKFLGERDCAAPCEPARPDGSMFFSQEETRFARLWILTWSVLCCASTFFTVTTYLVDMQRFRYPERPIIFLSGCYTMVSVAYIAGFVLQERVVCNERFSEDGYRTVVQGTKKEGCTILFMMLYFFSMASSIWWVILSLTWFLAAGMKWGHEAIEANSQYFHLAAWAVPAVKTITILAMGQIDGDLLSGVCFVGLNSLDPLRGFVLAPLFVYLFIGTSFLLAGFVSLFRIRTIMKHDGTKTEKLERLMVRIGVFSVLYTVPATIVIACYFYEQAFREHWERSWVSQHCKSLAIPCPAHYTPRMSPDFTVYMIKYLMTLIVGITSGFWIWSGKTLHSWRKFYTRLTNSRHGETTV
T3 sequence (O70421 69-642): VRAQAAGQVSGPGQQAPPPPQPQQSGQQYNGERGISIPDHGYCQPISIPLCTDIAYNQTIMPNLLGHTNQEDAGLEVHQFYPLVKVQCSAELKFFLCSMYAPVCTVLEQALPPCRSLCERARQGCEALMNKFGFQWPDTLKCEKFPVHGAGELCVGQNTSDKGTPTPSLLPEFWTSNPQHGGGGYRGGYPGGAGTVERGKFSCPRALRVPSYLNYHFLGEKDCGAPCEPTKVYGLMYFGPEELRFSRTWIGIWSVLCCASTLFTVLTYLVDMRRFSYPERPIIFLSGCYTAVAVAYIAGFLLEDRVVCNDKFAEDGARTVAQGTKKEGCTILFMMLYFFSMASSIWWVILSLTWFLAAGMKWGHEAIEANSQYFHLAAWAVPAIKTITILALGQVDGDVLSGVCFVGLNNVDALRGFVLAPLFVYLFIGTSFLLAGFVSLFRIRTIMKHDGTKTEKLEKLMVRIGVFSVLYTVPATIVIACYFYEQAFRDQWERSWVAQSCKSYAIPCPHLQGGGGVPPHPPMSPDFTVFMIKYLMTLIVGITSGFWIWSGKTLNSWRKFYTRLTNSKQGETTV

B1: UM206 (5 S = A) (peptide)
peptide: CNKTAEGMDGCEL
As to B1, the “% of inhibition of Wnt3a-induced luciferase activity (peptide at 1.10^-9 M)” value (from here on “% of inhibition … (peptide at 1.10^-9 M)”) stood at 74.3% in assay [1] and 87.3% in assay [2].

B2: UM206 (10 G = A) (peptide)
peptide: CNKTSEGMDACEL
For the molecule B2, the results for the “% of inhibition … (peptide at 1.10^-9 M)” value in assay [1] and in assay [2] were 69.9% and 83.3%, respectively.

B3: UM206 - (label cut short in Table 3; taken as UM206 with the C-terminal Glu-Leu deleted) (peptide)
peptide: CNKTSEGMDGC
For B3, the entries for the “% of inhibition … (peptide at 1.10^-9 M)” value in assay [1] and in assay [2] were 18% and 61.2%, respectively.

B4: peptide CNVSSHGIDGCDL (SEQ ID NO: 18), derived from the area of Wnt3a homologous to UM206 (peptide)
peptide: CNVSSHGIDGCDL
Take B4: the entries for the “% of inhibition … (peptide at 1.10^-9 M)” value in assay [1] and in assay [2] were 45.3% and 62.4%, respectively.

B5: UM206 (2 N = A) (peptide)
peptide: CAKTSEGMDGCEL
Consider B5, for which the “% of inhibition … (peptide at 1.10^-9 M)” value in assay [1] is 68%; in assay [2], 79.5%.

B6: UM206 (3 K = A) (peptide)
peptide: CNATSEGMDGCEL
In the case of B6, the “% of inhibition … (peptide at 1.10^-9 M)” value was found to be 70.8% in assay [1] and 84.9% in assay [2].

B7: UM206 (8 M = A) (peptide)
peptide: CNKTSEGADGCEL
In the case of B7, the “% of inhibition … (peptide at 1.10^-9 M)” value in assay [1] was determined as 67.6%; in assay [2] it was 85%.

B8: UM206 (12-13 EL = AA) (peptide)
peptide: CNKTSEGMDGCAA
B8: the figures for the “% of inhibition … (peptide at 1.10^-9 M)” value in assay [1] and in assay [2] were 66.8% and 74.3%, respectively.

B9: UM208 (peptide)
peptide: GSCSLKTCWLQLAD
In the case of B9, the “IC50, inhibition of Wnt3a (10^-9 M)-induced luciferase, HEK293-superTOPflash, single binding site fit” value in assay [3] is 2060 nM; in assay [4], 2110 nM.

B10: UM206 (C = C-alkyl) (peptide)
peptide: C(alkyl)NKTSEGMDGC(alkyl)EL
modifications: reading uncertain; also: alkyl group not given here
For the molecule B10, the “% of inhibition … (peptide at 1.10^-9 M)” value in assay [1] was found to be 1%; in assay [2] it was 12.4%.

B11: UM206 (C = A) (peptide)
peptide: ANKTSEGMDGAEL
On to B11, for which the “% of inhibition … (peptide at 1.10^-9 M)” value in assay [1] amounted to 0%; in assay [2], 8.39%.

B12: Peptide UM207 (linear), Ac-Gly-Ile-Lys-Glu-Cys-Gln-Tyr-Gln-Phe-Arg-His-Arg-Arg-Trp-Asn-Cys-Ser-Thr-Val-Asp-NH2 (peptide)
peptide: Ac-GIKECQYQFRHRRWNCSTVD-NH2
modifications: cysteine pairing not given here
As to B12, the entries for the “IC50, inhibition of Wnt3a (10^-9 M)-induced luciferase, HEK293-superTOPflash, single binding site fit” value in assay [3] and in assay [4] were 40 nM and 15.2 nM, respectively. Further, the binding result in assay [5] and in assay [6] was “binds” in each case.

B13: UM206 (11 C = A) (peptide)
peptide: CNKTSEGMDGAEL
Turning to B13, the entries for the “% of inhibition … (peptide at 1.10^-9 M)” value in assay [1] and in assay [2] were 67.2% and 84.9%, respectively.

B14: Peptide UM206 (linear), Ac-Cys-Asn-Lys-Thr-Ser-Glu-Gly-Met-Asp-Gly-Cys-Glu-Leu-NH2 (peptide)
peptide: Ac-CNKTSEGMDGCEL-NH2
modifications: cysteine pairing not given here
In the case of B14, the “IC50, inhibition of Wnt3a (10^-9 M)-induced luciferase, HEK293-superTOPflash, two-binding-state fit” value in assay [3] came to 2.1 nM; in assay [4] it was 0.0169 nM. Moreover, the “affinity ratio against rFzd-1, from reporter IC50 values” in assay [4] was around 100 fold. Also, the “% of inhibition … (peptide at 1.10^-9 M)” value was 72.2% in assay [1] and 75.1% in assay [2].

B15: UM206 (6 E = A) (peptide)
peptide: CNKTSAGMDGCEL
Regarding B15, the “% of inhibition … (peptide at 1.10^-9 M)” value in assay [1] is 70.8%; in assay [2] it was 84.7%.

B16: UM206 (4 T = A, 7 G = A, 9 D = A) (peptide)
peptide: CNKASEAMAGCEL
On to B16, for which the “% of inhibition … (peptide at 1.10^-9 M)” value in assay [1] worked out at 11.2%; in assay [2], 17.5%.

B17: UM206 (12 E = A) (peptide)
peptide: CNKTSEGMDGCAL
As for B17, the “% of inhibition … (peptide at 1.10^-9 M)” value in assay [1] was found to be 65.9%; in assay [2] it was 85.5%.

B18: UM206 (C = S) (peptide)
peptide: SNKTSEGMDGSEL
Regarding B18, the “% of inhibition … (peptide at 1.10^-9 M)” value is 0% in assay [1] and 17% in assay [2].

B19: UM206 (7 G = A) (peptide)
peptide: CNKTSEAMDGCEL
Regarding B19, the results for the “% of inhibition … (peptide at 1.10^-9 M)” value in assay [1] and in assay [2] were 52.6% and 63.1%, respectively.

B20: UM206 (1 C = A) (peptide)
peptide: ANKTSEGMDGCEL
Consider B20, for which the “% of inhibition … (peptide at 1.10^-9 M)” value turned out to be 70.8% in assay [1] and 82.6% in assay [2].

B21: UM206 (4 T = A) (peptide)
peptide: CNKASEGMDGCEL
As to B21, the “% of inhibition … (peptide at 1.10^-9 M)” value amounted to 28.1% in assay [1] and 59.4% in assay [2].

B22: UM206 (9 D = A) (peptide)
peptide: CNKTSEGMAGCEL
For the molecule B22, the “% of inhibition … (peptide at 1.10^-9 M)” value was determined as 40.5% in assay [1] and 60.5% in assay [2].

B23: UM206 (13 L = A) (peptide)
peptide: CNKTSEGMDGCEA
On to B23, for which the “% of inhibition … (peptide at 1.10^-9 M)” value in assay [1] worked out at 65.9%; in assay [2], 86.5%.
